From patent US5719041 come the findings set out here.

Targets include Bovine trypsin (bovine) (UniProt P00760); Human Factor XIa (human) (UniProt P03951); Human plasmin (human) (UniProt P00747); Human thrombin (human) (UniProt P00734).
For test [1], the target named is Bovine chymotrypsin (bovine) (UniProt P00766).
The target in test [2] is Human Factor XIIa (human) (UniProt P00748).
The target in test [3] is Human Factor Xa (human) (UniProt P00742).
Test [4] addresses Human activated protein C (human) (UniProt P04070).
The target of test [5] is Human leukocyte elastase (human) (UniProt P08246).
The target in test [6] is Human plasma kallikrein (human) (UniProt P03952).
Test [7] deals with Single chain tissue plasminogen activator (human) (UniProt P00750).
The target of test [8] is Tissue factor·Factor VIIa complex (human Factor VIIa with recombinant human TF1-243) (human) (UniProt P08709).
The target in test [9] is Human Factor XIIa (human) (UniProt P00748). This is another data set of the same source.
Test [10] concerns the target Human Factor Xa (human) (UniProt P00742). This is another data set of the same source.
For test [11], the target named is Human plasma kallikrein (human) (UniProt P03952). This is another data set of the same source.
Test [12] addresses T1, MeOSuc-Ala-Ala-Pro-Val-MCA.
T1 sequence (peptide, N-terminal MeOSuc; C-terminal MCA): AAPV

Sequence of Human leukocyte elastase (P08246 30-247 limits assumed): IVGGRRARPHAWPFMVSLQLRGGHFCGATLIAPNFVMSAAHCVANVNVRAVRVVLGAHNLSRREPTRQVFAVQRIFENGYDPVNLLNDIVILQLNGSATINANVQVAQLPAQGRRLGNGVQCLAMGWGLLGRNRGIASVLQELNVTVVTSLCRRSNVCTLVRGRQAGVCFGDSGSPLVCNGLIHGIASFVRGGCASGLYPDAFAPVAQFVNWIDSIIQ

For “Ecotin (recombinant wild type, E. coli periplasmic protein, 142 amino acid residues) (from UniProt P23827)”, the Percent Activity of protease with 100 nM inhibitor turned out to be 0% in test [1]; 0% with Bovine trypsin (bovine); 0% in test [2]; 79% in the test with Human Factor XIa (human); 0% in the test with Human Factor Xa (human) [3]; 99% in [4]. Moreover, the Percent Activity of protease with 100 nM inhibitor is 0% in test [5]; 0% in [6]; 100% in the test with Human plasmin (human); 98% in the test with Human thrombin (human); 100% in test [7]; 99% in [8]. The concentration giving 10-fold prolongation of clotting time, APTT assay in normal human plasma in [9] and in test [11] was 0.3 µM each time. The substance further gave a concentration giving 10-fold prolongation of clotting time, PT assay in normal human plasma in the test with Human Factor Xa (human) [10] of 2 µM.
Consider “Ecotin M84K mutant (from UniProt P23827)”, for which the Percent Activity of protease with 100 nM inhibitor stood at 1% in test [1]; 0% with Bovine trypsin (bovine); 0% in [2]; 12% in the test with Human Factor XIa (human); 2% with Human Factor Xa (human) [3]; 65% in [4]. The Percent Activity of protease with 100 nM inhibitor is 85% in test [5]; 2% in [6]; 9% in the test with Human plasmin (human); 16% with Human thrombin (human); 100% in test [7]; 92% in [8].
For “Ecotin M84R mutant (from UniProt P23827)”, the Percent Activity of protease with 100 nM inhibitor in [1] came out at 0%; with Bovine trypsin (bovine), 0%; in test [2] it was 1%; with Human Factor XIa (human), 5%; with Human Factor Xa (human) [3], 1%; in test [4], 50%. Also, the Percent Activity of protease with 100 nM inhibitor in test [5] stood at 88%; in test [6], 1%; in the test with Human plasmin (human), 10%; with Human thrombin (human), 4%; in test [7] it was 100%; in test [8] it was 87%.
As to “Human leukocyte elastase (from UniProt P08246) (enzyme)”, the Km of the substrate with HLE in test [12] is 150 µM.
